# According to patent publication EP4541444A1:
# Positions count from the first letter of the chain named.
# B1: 4A-5 (VHH)
# VHH: QVQLQQSGGGSVQAGGSLRLSCTISGRTFSSYAMGWFRQRPGKEREFVAAINWSSGSTYYADSVKGRFTISRDNAKNTVYLQMNSLKPEDTAVYYCAAGYQINSGNYNFKDYEYDYWGQGTQVTVSS
# B2: 4B-4 (VHH)
# VHH: B1 VHH
# B3: 2A-1 (VHH)
# VHH: QVQLQQSGGGSVQAGGSLRLSCTISGRTLSDYTMGWFRQRPGKEREFVAAISWSGAYTKYADSVKGRFTISRDNAKNTVYLQMNSLKPEDTAVYYCAAGPTGLLSKKATPADYDYWGQGTQVTVSS
# B4: 4B-5 (VHH)
# VHH: QVQLQESGGGLVQPGGSLRLSCAASGRTSINPYMAWFRQAPGKQREFVAAISSGGVYTYYTDSVKGRFTISRDNAKTTVYLQMNSLKPEDTAVYYCAADFRRGGNWNVDPFRYDYQYWGQGTQVTVSS
# B5: 4B-6 (VHH)
# VHH: B4 VHH with E6Q, L11S, P14A, A23T, A24I, A40R, Q44E, T61A, T77N, Q116D
# B6: 2B-1 (VHH)
# chain: QVQLQQSGGGSVQAGGSLRLSCTISGRTLSDYTMGWFRQRPGKEREFVAAISWSGAYTKYADSVKGRFTISRDNAKNTVYLQMNSLKPEDTAVYYCAAGPTGLLSKKATPADYDYWGQGTQVTVSSQASAEAAAKEAAAKAGQVQLQQSGGGSVQAGGSLRLSCTISGRTLSDYTMGWFRQRPGKEREFVAAISWSGAYTKYADSVKGRFTISRDNAKNTVYLQMNSLKPEDTAVYYCAAGPTGLLSKKATPADYDYWGQGTQVTVSSQASAEAAAKEAAAKAGQVQLQQSGGGSVQAGGSLRLSCTISGRTLSDYTMGWFRQRPGKEREFVAAISWSGAYTKYADSVKGRFTISRDNAKNTVYLQMNSLKPEDTAVYYCAAGPTGLLSKKATPADYDYWGQGTQVTVSSQASHHHHHHC
# Tests used:
# [1] = target: epidermal growth factor receptor (Example 4A) (UniProt P00533); assay: SPR (Biacore), fusion on CM5 chip, EGFR 200 nM
# [2] = target: EGFR (SinoBiological, 10001-H08H) (UniProt P00533); assay: SPR (Biacore), fusion on CM5 chip, EGFR 200 nM
# [3] = target: AAV9 viral particles (adeno-associated virus serotype 9); assay: SPR (Biacore), ligand amine coupled to CM5 chip, AAV9 2E12 vp/ml
# trastuzumab-GFP = assay: SPR (Biacore), fusion on CM5 chip, 2 µM Fc block, then trastuzumab-eGFP 1 µM
# [4] = target: AAV9 viral particles (adeno-associated virus serotype 9); assay: SPR (Biacore), biotinylated ligand on SA chip, AAV9 2E12 vp/ml
binder,measurement,setting,value
B1,Binding capacity EGFR (200 nM),[1],2350 RU
B2,Binding capacity EGFR (200 nM),[2],1900 RU
B3,AAV9 capacity (2E12 vp/ml),[3],11300 RU
B4,Binding capacity trastuzumab-eGFP (1 µM),trastuzumab-GFP,4300 RU
B5,Binding capacity trastuzumab-eGFP (1 µM),trastuzumab-GFP,3910 RU
B6,AAV9 capacity (2E12 vp/ml),[4],13400 RU
